# In article PMC7275037, “DNA origami-based single-molecule force spectroscopy elucidates RNA Polymerase III pre-initiation complex stability”:
# Where “and” joins values, the source holds several entries; their conditions need not be identical. Equal entries are not always repeated.
# B1: U6 snRNA promoter in DNA origami force clamp (dsDNA)
# DNA 1: CGGACCAAGATGATTTGATTGAAGGGCTTAAAATAGGTGTTAGAGTAACCCTTGA
# DNA 2: TCAAGGGTTACTCTAACACCTATTTTAAGCCCTTCAATCAAATCATCTTGGTCCG
# Experiments:
# [1] = biological target: TBP;TFIIA (single chain);TFIIB (Homo sapiens;Homo sapiens;Homo sapiens?) (UniProt P20226+P52655+P52657+Q00403); experiment: smFRET; settings: Binding buffer and temperature not in the material (origami folding buffer: 10 mM Tris pH 7.6, 1 mM EDTA, 20 mM MgCl2, 5 mM NaCl); TFIIB 0.2 uM, TFIIA 2 uM …
# [2] = biological target: TBP;TFIIA (single chain) (Homo sapiens;Homo sapiens) (UniProt P20226+P52655+P52657); experiment: smFRET; settings: Binding buffer and temperature not in the material (origami folding buffer: 10 mM Tris pH 7.6, 1 mM EDTA, 20 mM MgCl2, 5 mM NaCl); TFIIB 0.2 uM, TFIIA 2 uM …
# [3] = biological target: TBP (Homo sapiens, UniProt P20226 169-339); experiment: smFRET; TIRF dwell times; 0 pN; 20 nM TBP; E=0.39; Binding buffer and temperature not in the material (origami folding buffer: 10 mM Tris pH 7.6, 1 mM EDTA, 20 mM MgCl2, 5 mM NaCl); TFIIB 0.2 uM, TFIIA 2 uM, other proteins 20 nM; settings: protein: recombinant; tags: N-terminal His; label: ATTO 532 and ATTO 647N on S17 strand (positions by colour only); ds region (U6_comp) within ssDNA spring
# Sequence of TBP (P20226 169-339): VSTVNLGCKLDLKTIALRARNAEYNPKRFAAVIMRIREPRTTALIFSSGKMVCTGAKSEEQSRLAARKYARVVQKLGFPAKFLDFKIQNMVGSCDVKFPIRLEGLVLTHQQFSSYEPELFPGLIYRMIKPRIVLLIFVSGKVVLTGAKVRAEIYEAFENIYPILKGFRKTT
# Sequence of TBP;TFIIA (single chain);TFIIB (Homo sapiens;Homo sapiens;Homo sapiens?) (P20226 whole entry, chain 1 of 4): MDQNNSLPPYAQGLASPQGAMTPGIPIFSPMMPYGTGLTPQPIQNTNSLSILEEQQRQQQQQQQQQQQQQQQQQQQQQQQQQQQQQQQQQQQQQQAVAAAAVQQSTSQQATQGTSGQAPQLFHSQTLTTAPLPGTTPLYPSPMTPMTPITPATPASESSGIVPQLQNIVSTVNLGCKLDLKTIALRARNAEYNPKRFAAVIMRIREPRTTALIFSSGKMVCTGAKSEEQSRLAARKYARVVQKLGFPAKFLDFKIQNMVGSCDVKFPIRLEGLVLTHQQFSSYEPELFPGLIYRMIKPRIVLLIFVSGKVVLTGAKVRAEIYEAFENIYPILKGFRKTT
# Sequence of TBP;TFIIA (single chain);TFIIB (Homo sapiens;Homo sapiens;Homo sapiens?) (P52655 whole entry, chain 2 of 4): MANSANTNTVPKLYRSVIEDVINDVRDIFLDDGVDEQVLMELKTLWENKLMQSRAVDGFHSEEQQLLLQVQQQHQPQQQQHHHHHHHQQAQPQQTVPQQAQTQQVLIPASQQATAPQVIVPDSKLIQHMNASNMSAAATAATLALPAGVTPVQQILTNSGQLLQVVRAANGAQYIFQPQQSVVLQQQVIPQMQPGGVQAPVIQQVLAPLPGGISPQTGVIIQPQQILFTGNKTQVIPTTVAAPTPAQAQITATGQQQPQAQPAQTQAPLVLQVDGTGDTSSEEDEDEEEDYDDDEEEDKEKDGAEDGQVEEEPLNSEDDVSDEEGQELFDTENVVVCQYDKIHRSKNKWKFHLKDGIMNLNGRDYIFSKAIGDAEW
# Sequence of TBP;TFIIA (single chain);TFIIB (Homo sapiens;Homo sapiens;Homo sapiens?) (P52657 whole entry, chain 3 of 4): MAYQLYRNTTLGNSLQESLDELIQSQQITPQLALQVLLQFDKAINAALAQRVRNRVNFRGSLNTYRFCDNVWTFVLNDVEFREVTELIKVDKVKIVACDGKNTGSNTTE
# Sequence of TBP;TFIIA (single chain);TFIIB (Homo sapiens;Homo sapiens;Homo sapiens?) (Q00403 whole entry, chain 4 of 4): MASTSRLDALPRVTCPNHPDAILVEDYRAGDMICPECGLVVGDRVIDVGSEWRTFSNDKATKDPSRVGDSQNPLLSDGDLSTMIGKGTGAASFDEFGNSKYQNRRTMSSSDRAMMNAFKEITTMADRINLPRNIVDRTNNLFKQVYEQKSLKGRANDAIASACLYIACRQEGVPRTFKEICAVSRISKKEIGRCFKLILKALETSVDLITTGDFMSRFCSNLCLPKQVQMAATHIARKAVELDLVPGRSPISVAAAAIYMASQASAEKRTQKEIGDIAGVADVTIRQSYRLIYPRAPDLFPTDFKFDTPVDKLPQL
# Sequence of TBP;TFIIA (single chain) (Homo sapiens;Homo sapiens) (P20226 whole entry, chain 1 of 3): as the sequence (P20226 whole entry, chain 1 of 4) above
# Sequence of TBP;TFIIA (single chain) (Homo sapiens;Homo sapiens) (P52655 whole entry, chain 2 of 3): as the sequence (P52655 whole entry, chain 2 of 4) above
# Sequence of TBP;TFIIA (single chain) (Homo sapiens;Homo sapiens) (P52657 whole entry, chain 3 of 3): as the sequence (P52657 whole entry, chain 3 of 4) above
Molecule,binding signal (% high FRET (bent)) [1],binding signal (% high FRET (bent)) [2],binding result [3]
AAGCTTTAGGGCGCCTATAAAAGGGGGTTCGGGCG (double strand) [AdMLP promoter in DNA origami force clamp],72 and 53,26,–
B1,–,–,binds
